Measured values from patent US20250009876A1 (H LUNDBECK A S, published 2025).
Where two headings read alike, the source gives them in different places.

Assays:
[1] = target: T1, PACAP27 (Pituitary Adenylate Cyclase-Activating Polypeptide, 27 amino acids) (human, the C-terminal leucine is amidated); assay: cell-based or functional assay
T1 peptide: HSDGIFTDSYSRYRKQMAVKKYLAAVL

[2] = target: T2, PACAP38 (Pituitary Adenylate Cyclase-Activating Polypeptide, 38 amino acids) (human, not fully specified; the C-terminal lysine is amidated); assay: cell-based or functional assay
T2 peptide: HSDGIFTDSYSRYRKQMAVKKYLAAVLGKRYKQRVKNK

[3] = target: T3, VIP (Vasoactive Intestinal Peptide) (human); assay: SPR (ProteOn XPR36), antibody amine-coupled, peptide analyte, 1:1 Langmuir fit
T3 construct: also called human VIP
T3 peptide: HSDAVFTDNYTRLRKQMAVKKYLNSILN

[4] = target: T4, PAC1-R on PAC1-R-expressing PC-12 cells (UniProt P32215 20-523); assay: cell surface binding assay (DELFIA TRF): antibody pre-incubated with PACAP38, added to PAC1-R-expressing PC-12 cells, detected with Eu anti-human IgG
T4 construct: whole, on cells; also called PAC1 receptor
T4 sequence (looked up): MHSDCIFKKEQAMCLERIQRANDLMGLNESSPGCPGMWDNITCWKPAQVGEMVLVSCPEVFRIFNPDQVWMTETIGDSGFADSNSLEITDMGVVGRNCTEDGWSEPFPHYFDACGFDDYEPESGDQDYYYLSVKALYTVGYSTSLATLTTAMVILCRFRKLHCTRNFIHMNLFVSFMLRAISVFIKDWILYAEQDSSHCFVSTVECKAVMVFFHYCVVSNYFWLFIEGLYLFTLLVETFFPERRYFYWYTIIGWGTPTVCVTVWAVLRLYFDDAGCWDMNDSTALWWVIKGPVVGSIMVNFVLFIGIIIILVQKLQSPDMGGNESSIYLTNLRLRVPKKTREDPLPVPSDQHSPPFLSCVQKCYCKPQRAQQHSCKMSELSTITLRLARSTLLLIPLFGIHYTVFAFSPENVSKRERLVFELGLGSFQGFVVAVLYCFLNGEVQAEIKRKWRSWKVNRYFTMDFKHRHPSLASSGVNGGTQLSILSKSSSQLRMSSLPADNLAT
Description: Cells were initially seeded at 1×10⁵ cells/well in a solution of complete RPMI (“cRPMI”: RPMI medium supplemented with 10% sterile heat-inactivated FBS and 1% sterile antibiotic/antimycotic)+10% FBS, and the plates were allowed to incubate overnight at 37° C. On the day of the binding assay, antibodies at an initial concentration of 15 μg/ml were diluted at a 1:3 ratio in DELFIA® binding buffer (50 mM Tris, 150 mM NaCl, 0.1% azide, 2% horse serum) (Perkin-Elmer, Waltham, MA) to a total volume of 60 μL in a separate 96 well round bottom plate. PACAP38 was prepared for the binding assay by diluting it in DELFIA® binding buffer to a concentration of 200 nM, and then 60 μl of the diluted PACAP38 was added to each of the antibody-containing wells to form antibody: antigen complexes. Following addition of PACAP38, the antibody: antigen complexes were incubated at room temperature on a shaker for 1 hour. Separately, the PC-12 cells were prepared for addition of antibody: antigen complexes by washing the cells two times with DELFIA® wash buffer (50 mM Tris, 150 mM NaCl, 0.1% Azide) (Perkin-Elmer, Waltham, MA). After washing the cells two times and following the 1 hour room temperature incubation of the antibody: antigen complexes, 50 μl of the antibody: antigen complex was added to each well containing cells. The mixtures of cells and antibody: antigen complexes were then incubated for 30 minutes at room temperature. Following this 30 minute incubation, each mixture was washed two times with DELFIA® wash buffer (Perkin-Elmer, Waltham, MA).
DELFIA® Europium labeled anti-human IgG detection reagent (Cat #1244-330, Perkin-Elmer, Waltham, MA) was diluted to a concentration of 300 ng/ml in DELFIA® Binding Buffer. Following dilution, 50 μl of the anti-human IgG detection reagent was added to each well containing cells, and a 30 minute incubation at room temperature followed this addition of IgG detection reagent. After completion of the 30 minute room temperature incubation, the cells were then washed two times with DELFIA® wash buffer. Next, 50 μl of DELFIA® Enhancement Solution (Cat #1244-105, Perkin-Elmer, Waltham, MA) was added to each well containing cells for a final 15 minute room temperature incubation with shaking. The plates were then read (TRF, excitation 330 nm, emission 620 nm) on a SPECTRAMAX® (Molecular Devices, Sunnyvale, CA) plate reader.

[5] = target: T1, PACAP27 (Pituitary Adenylate …); assay: SPR (ProteOn XPR36), antibody amine-coupled, peptide analyte, 1:1 Langmuir fit
Description: (§1) Binding affinities of monoclonal antibodies for human PACAP were estimated using SPR on the PROTEON™ XPR36 (Bio-Rad, Hercules, CA). Antibody was immobilized to the surface of general amine coupling (“GLC” or “GLM”) Chips (Bio-Rad, Hercules, CA). […] Antigen (ranging from 1.23 nM to 100 nM) was typically run sequentially with association times of 2-4 minutes and dissociation times of 3-120 minutes grouped with the PROTEON™ Manager Software (v3.1.0.6 (Bio-Rad, Hercules, CA)) and fitted using a 1:1 Langmuir binding model. Surfaces were regenerated between analyte queries using 0.85% Phosphoric Acid.

[6] = target: T2, PACAP38 (Pituitary Adenylate …); assay: as above
Description: as §1

[7] = target: T1, PACAP27 (Pituitary Adenylate …); assay: as above
Description: (§2) Binding affinities of monoclonal antibodies for human PACAP were estimated using SPR on the PROTEON™ XPR36 (Bio-Rad, Hercules, CA). Antibody was immobilized to the surface of general amine coupling (“GLC″ or “GLM”) Chips (Bio-Rad, Hercules, CA). […] Antigen (ranging from 1.23 nM to 100 nM) was typically run sequentially with association times of 2-4 minutes and dissociation times of 3-120 minutes grouped with the PROTEON™ Manager Software (v3.1.0.6 (Bio-Rad, Hercules, CA)) and fitted using a 1:1 Langmuir binding model. Surfaces were regenerated between analyte queries using 0.85% Phosphoric Acid, 0.5% SDS, and 0.1N NaOH.

[8] = target: T2, PACAP38 (Pituitary Adenylate …); assay: as above
Description: as §2

[9] = target: T2, PACAP38 (Pituitary Adenylate …); assay: cell-based or functional assay
[10] = target: T3, VIP (Vasoactive Intestinal Peptide); assay: SPR (ProteOn XPR36), antibody amine-coupled, peptide analyte, 1:1 Langmuir fit
[11] = target: T2, PACAP38 (Pituitary Adenylate …); assay: cell-based or functional assay

B1: Ab10.H4 (antibody, human IgG1, kappa, N297A)
heavy: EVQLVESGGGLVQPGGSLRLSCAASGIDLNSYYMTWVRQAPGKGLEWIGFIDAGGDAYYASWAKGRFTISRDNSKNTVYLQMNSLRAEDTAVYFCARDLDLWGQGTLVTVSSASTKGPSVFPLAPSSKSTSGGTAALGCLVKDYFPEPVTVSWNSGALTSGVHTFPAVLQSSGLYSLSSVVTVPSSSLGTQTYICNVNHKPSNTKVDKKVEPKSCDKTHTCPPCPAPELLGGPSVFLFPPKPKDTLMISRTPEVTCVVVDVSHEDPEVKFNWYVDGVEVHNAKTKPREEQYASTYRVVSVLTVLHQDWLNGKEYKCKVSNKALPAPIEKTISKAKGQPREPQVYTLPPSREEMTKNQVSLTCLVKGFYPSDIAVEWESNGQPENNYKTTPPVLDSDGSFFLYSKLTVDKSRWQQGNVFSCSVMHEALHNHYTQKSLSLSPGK
light: DIVLTQSPSTLSASVGDRVTITCQSSESVYGNYLAWFQQKPGKAPKFLIYEASKLESGVPSRFSGSGSGTEFTLTISSLQPDDFATYYCAGGDISEGVAFGGGTKVEIKRTVAAPSVFIFPPSDEQLKSGTASVVCLLNNFYPREAKVQWKVDNALQSGNSQESVTEQDSKDSTYSLSSTLTLSKADYEKHKVYACEVTHQGLSSPVTKSFNRGEC
notes: Full-length humanized variant of Ab10
- Inhibition of 1 nM PACAP27-induced PAC1-R mediated cAMP increase IC50 (pM) [1]: 329 pM
- Inhibition of 0.1 nM PACAP38-induced PAC1-R mediated cAMP increase IC50 (pM) [2]: 22.8 pM
- Kd [3]: 98 nM
- koff [3]: 0.015 s⁻¹
- kon [3]: 150000 M⁻¹ s⁻¹
- binding result [4]: no binding (tested: about 70 nM)
- Kd [5]: 0.093 nM
- koff [5]: 1.7e-05 s⁻¹
- kon [5]: 190000 M⁻¹ s⁻¹
- Kd [6]: ≤ 0.019 nM
- koff [6]: ≤ 1e-05 s⁻¹
- kon [6]: 530000 M⁻¹ s⁻¹

B2: Ab21.H3 (antibody, human IgG1, kappa, N297A)
heavy: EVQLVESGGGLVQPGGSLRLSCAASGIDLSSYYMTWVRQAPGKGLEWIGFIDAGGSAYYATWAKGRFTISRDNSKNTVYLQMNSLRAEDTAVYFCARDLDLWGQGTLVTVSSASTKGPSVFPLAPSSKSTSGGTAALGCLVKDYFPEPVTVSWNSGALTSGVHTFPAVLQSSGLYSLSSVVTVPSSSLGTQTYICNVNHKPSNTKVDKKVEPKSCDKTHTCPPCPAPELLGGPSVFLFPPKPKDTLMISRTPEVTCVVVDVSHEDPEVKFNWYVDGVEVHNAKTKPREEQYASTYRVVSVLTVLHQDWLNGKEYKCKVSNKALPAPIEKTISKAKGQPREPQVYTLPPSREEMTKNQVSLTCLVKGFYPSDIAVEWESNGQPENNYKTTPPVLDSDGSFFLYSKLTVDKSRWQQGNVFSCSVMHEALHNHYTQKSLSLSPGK
light: DIQLTQSPSTLSASVGDRVTITCKSSESVYGDYLAWFQQKPGKAPKQLIYDASTLASGVPSRFSGSGSGTEFTLTISSLQPDDFATYYCAGGYVSAGVAFGGGTKVEIKRTVAAPSVFIFPPSDEQLKSGTASVVCLLNNFYPREAKVQWKVDNALQSGNSQESVTEQDSKDSTYSLSSTLTLSKADYEKHKVYACEVTHQGLSSPVTKSFNRGEC
notes: Full-length humanized variant of Ab21
- Kd [7]: ≤ 0.0311 nM
- koff [7]: ≤ 1e-05 s⁻¹
- kon [7]: 322000 M⁻¹ s⁻¹
- Kd [8]: ≤ 0.0223 nM
- koff [8]: ≤ 1e-05 s⁻¹
- kon [8]: 449000 M⁻¹ s⁻¹
- Inhibition of 1 nM PACAP27-induced PAC1-R mediated cAMP increase IC50 (pM) [1]: 318 pM
- Inhibition of 0.1 nM PACAP38-induced PAC1-R mediated cAMP increase IC50 (pM) [2]: 65.3 pM
- Inhibition of 1 nM PACAP38-induced human VPAC2-R mediated cAMP increase IC50 (pM) [9]: 1530 pM
- Kd [10]: 424 nM
- koff [10]: 0.0249 s⁻¹
- kon [10]: 58700 M⁻¹ s⁻¹
- Inhibition of 5 nM PACAP38-induced human VPAC1-R mediated cAMP increase IC50 (pM) [11]: 2520 pM

B3: Ab10.H2 (antibody, human IgG1, kappa, N297A)
heavy: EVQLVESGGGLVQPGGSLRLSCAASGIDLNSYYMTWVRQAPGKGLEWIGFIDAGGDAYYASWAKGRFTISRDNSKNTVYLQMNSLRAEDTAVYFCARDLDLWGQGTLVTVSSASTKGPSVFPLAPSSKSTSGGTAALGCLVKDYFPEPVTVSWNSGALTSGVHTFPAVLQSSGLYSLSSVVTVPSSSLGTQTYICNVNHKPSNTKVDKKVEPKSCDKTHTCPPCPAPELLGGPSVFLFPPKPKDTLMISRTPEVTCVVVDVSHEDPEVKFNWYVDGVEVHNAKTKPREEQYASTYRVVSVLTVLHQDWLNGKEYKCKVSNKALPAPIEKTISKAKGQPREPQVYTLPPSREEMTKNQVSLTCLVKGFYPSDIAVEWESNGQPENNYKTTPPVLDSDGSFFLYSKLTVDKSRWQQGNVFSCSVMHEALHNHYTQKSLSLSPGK
light: AVLTQSPSTLSASVGDRVTITCQSSESVYGNYLAWFQQKPGKAPKFLIYEASKLESGVPSRFSGSGSGTEFTLTISSLQPDDFATYYCAGGDISEGVAFGGGTKVEIKRTVAAPSVFIFPPSDEQLKSGTASVVCLLNNFYPREAKVQWKVDNALQSGNSQESVTEQDSKDSTYSLSSTLTLSKADYEKHKVYACEVTHQGLSSPVTKSFNRGEC
notes: as for B1
- Inhibition of 1 nM PACAP27-induced PAC1-R mediated cAMP increase IC50 (pM) [1]: 466 pM
- Inhibition of 0.1 nM PACAP38-induced PAC1-R mediated cAMP increase IC50 (pM) [2]: 21.3 pM
- Kd [3]: 230 nM
- koff [3]: 0.046 s⁻¹
- kon [3]: 200000 M⁻¹ s⁻¹
- binding result [4]: no binding (tested: about 70 nM)
- Kd [5]: 0.078 nM
- koff [5]: 1.7e-05 s⁻¹
- kon [5]: 210000 M⁻¹ s⁻¹
- Kd [6]: 0.022 nM
- koff [6]: 1.4e-05 s⁻¹
- kon [6]: 630000 M⁻¹ s⁻¹

B4: Ab10.H5 (antibody, human IgG1, kappa, N297A)
heavy: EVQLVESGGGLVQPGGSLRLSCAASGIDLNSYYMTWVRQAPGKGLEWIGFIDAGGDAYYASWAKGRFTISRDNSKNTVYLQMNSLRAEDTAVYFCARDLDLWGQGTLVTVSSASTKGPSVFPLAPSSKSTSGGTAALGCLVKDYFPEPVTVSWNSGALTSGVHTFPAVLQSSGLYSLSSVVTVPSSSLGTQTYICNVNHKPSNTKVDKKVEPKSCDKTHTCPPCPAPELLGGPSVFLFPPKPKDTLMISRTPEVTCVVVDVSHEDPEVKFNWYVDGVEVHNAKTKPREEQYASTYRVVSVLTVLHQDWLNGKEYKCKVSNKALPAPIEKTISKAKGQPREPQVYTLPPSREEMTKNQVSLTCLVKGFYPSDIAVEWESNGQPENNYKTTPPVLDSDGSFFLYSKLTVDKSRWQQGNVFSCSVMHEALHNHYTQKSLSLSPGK
light: QLTQSPSTLSASVGDRVTITCQSSESVYGNYLAWFQQKPGKAPKFLIYEASKLESGVPSRFSGSGSGTEFTLTISSLQPDDFATYYCAGGDISEGVAFGGGTKVEIKRTVAAPSVFIFPPSDEQLKSGTASVVCLLNNFYPREAKVQWKVDNALQSGNSQESVTEQDSKDSTYSLSSTLTLSKADYEKHKVYACEVTHQGLSSPVTKSFNRGEC
notes: as for B1
- Inhibition of 1 nM PACAP27-induced PAC1-R mediated cAMP increase IC50 (pM) [1]: 733 pM
- Inhibition of 0.1 nM PACAP38-induced PAC1-R mediated cAMP increase IC50 (pM) [2]: 22.7 pM
- binding result [4]: no binding (tested: about 70 nM)

B5: Ab21.H4 (antibody, human IgG1, kappa, N297A)
heavy: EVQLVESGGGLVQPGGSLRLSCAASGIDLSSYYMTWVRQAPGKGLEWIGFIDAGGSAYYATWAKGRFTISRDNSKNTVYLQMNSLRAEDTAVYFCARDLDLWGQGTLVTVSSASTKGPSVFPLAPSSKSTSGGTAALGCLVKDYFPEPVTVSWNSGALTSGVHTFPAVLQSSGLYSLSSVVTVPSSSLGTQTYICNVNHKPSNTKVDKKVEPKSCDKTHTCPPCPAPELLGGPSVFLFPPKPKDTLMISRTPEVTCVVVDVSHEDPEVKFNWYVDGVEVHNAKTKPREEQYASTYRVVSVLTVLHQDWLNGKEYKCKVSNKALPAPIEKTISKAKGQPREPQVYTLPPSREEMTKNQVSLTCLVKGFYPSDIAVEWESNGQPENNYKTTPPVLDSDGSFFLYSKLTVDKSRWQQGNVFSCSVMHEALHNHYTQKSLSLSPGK
light: DIVLTQSPSTLSASVGDRVTITCKSSESVYGDYLAWFQQKPGKAPKQLIYDASTLASGVPSRFSGSGSGTEFTLTISSLQPDDFATYYCAGGYVSAGVAFGGGTKVEIKRTVAAPSVFIFPPSDEQLKSGTASVVCLLNNFYPREAKVQWKVDNALQSGNSQESVTEQDSKDSTYSLSSTLTLSKADYEKHKVYACEVTHQGLSSPVTKSFNRGEC
notes: as for B2
- Kd [7]: ≤ 0.0351 nM
- koff [7]: ≤ 1e-05 s⁻¹
- kon [7]: 285000 M⁻¹ s⁻¹
- Kd [8]: ≤ 0.0238 nM
- koff [8]: ≤ 1e-05 s⁻¹
- kon [8]: 420000 M⁻¹ s⁻¹
- Inhibition of 1 nM PACAP27-induced PAC1-R mediated cAMP increase IC50 (pM) [1]: 275 pM
- Inhibition of 0.1 nM PACAP38-induced PAC1-R mediated cAMP increase IC50 (pM) [2]: 83.4 pM
- Inhibition of 1 nM PACAP38-induced human VPAC2-R mediated cAMP increase IC50 (pM) [9]: 2880 pM
- Kd [10]: 523 nM
- koff [10]: 0.0289 s⁻¹
- kon [10]: 55300 M⁻¹ s⁻¹
- Inhibition of 5 nM PACAP38-induced human VPAC1-R mediated cAMP increase IC50 (pM) [11]: 2830 pM

B6: Ab23 (antibody, human IgG1, kappa, N297A, V domains shown)
VH: QSVEESGGRLVTPGTPLTLTCTVSGFSLNNYAMSWVRQAPGKGLEWIGIMGVNDITYYASWAKGRFTISKTSTTVDLKMTSLTTEDTATYFCTREIRDDGDSSDKLWGPGTLVTVSS
VL: AIKMTQTPSSVSAAVGGTVTINCQASEDIYTNLAWYQQKPGQPPNLLIYDASDLASGVPSRFSGSGDGTQFTLTISAVQCEDAATYYCQGVAWSSNTGYGSAFGGGTEVVVKR
notes: Full-length anti-PACAP antibody; rabbit/human chimeric
- binding result [4]: no binding (tested: about 70 nM)
